Values of other authors in article PMC6359293.

Assays:
[1] = target: Phosphoprotein XD XD (Measles morbillivirus) (UniProt P03422)
hsp70 (Homo sapiens) = hsp70 (Homo sapiens) (UniProt P0DMV8)
Sequence of UniProt P0DMV8 (P0DMV8 2-641): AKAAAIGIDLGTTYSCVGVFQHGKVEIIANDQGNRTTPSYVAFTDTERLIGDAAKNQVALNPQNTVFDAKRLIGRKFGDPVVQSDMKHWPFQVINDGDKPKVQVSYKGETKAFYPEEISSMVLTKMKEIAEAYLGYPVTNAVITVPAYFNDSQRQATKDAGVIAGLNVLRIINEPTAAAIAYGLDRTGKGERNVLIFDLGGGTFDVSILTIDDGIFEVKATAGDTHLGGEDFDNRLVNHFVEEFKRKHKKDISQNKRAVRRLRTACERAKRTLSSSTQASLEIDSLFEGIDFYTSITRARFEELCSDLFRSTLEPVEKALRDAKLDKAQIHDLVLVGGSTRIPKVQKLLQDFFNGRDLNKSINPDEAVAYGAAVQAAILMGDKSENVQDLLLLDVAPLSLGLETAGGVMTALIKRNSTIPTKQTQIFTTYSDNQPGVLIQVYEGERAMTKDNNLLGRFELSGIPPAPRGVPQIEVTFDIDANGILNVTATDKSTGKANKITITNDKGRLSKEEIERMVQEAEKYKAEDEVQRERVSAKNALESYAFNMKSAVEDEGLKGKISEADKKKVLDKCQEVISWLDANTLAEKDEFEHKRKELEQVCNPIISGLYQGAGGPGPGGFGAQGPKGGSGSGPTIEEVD

Sequence of UniProt P03422 (P03422 457-507): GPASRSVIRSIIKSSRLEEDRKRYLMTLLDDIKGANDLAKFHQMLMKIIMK

Q: For “Measles virus nucleoprotein NTAIL NTAIL (from UniProt P04851)”, which Kd [1] is on record?
A: The Kd was 3 µM.

Q: What about the Kd (hsp70 (Homo sapiens)) of the same substance?
A: Its Kd is 70 µM.
